Data taken from the nanobody polyreactivity screen of Harvey et al. (2022).

Assay: yeast display, Sf9 membrane polyspecificity reagent, FACS + sequencing; frameworks hold sequencing errors
In short: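 After 36–48 hours of galactose induction, yeast (Saccharomyces cerevisiae BJ5465) displaying a synthetic nanobody library were stained at 4 °C for 1 hour with 10% biotinylated, detergent-solubilized Sf9 membrane reagent. Streptavidin microbeads enriched the stained cells before FACS sorting into low and high (top ~1%) gates on anti-HA and streptavidin fluorescence. Each clone's polyreactivity label reflects its gate of origin.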

Row | Sequence | polyreactivity (PSR sort gate)
1 | QLQLVDSGGGLVQAGGSLRLSCAASGKTISSYAMGWYRQAPGKEREFVAAISRGARTYYADSVKGRFTISRDNAKNTVYLQMNSLKPEDTAVYYCATRWPHYGGYYYWGQGTQVTVSS | high polyreactivity
2 | QLQLVDSGGGLVQAGGSLRLSCAASGSIFGAYAMGWYRHAPGKERELVAAINYGGATTYYADSVKGRFTISRDNAKNTVYLQMNSLIPEDTAVYYCAADYLYAYGDVADVYGWYAYYYWGQGTQVTVSS | low polyreactivity
3 | QLQLVESGGGLDQAGGSLRLSCAASGGTFFKNAMGWYRQAPGNERELVAVIDTISTSTYYAESVKGRFTISRDNAKNTVYLQMNSLKPEDTAVYYCAAEYGPGLTEGLYYYWGQGTQVTVSS | high polyreactivity
4 | QLQLVESGGGLFQAGGRLRLSFAATGSTFGYYARGWYRQAPGKERELVAAISGSGGSTYYADSVKGRFTISRDNAKNTVYLQMNSLKPEDTAVYYCAATFHRLPKWGSPYYYWGQGTQVTVSS | high polyreactivity
5 | QLQLVESGGGLFQAGGSLRISCAASGRTFLRNAMGSYRQPPGKEREFVATISAGGGSTYYADSVKGRFTISRDNAKNTVYLQMNSLKPEDTAVYYCAARYRAGPGYGMDSCGQGTQVTVSS | high polyreactivity
6 | QLQLVESGGGLVQAAGSLRLSSAASGSIFPDNAKGWYRQAPAKERELVATITSGGDTNYADSVKGRFTISRDNAKNTVYLQMNSLKPEDTAVYYCAADVYPDWLVKYDYWGQGTQVTVSS | low polyreactivity
7 | QLQLVESGGGLVQAGASLRLSCAASGFIFKYNAMGWYRQAPCKERELVSAISRGTSTYYADSVKGRFTISRDNAKNTVYLQLNSLKPEDTAVYYCEATGRRPGQKYMGYDYWGQGTQVTVSS | high polyreactivity
8 | QLQLVESGGGLVQAGCSLRLSCADSGRNYTMGRYRQAPGKERELVDASSKSGGSTSYADSVKGRFTISRDNAKNTVYLQLNSLKPEDTAVYYCATALRGSQAYSVRAMNYWGQATQVTVSS | high polyreactivity
9 | QLQLVESGGGLVQAGGRLRLSCAASGITYFTYDMGWYRQAPGKERELVAAISGSGGSTYYADSVKGRFTISRDNAKNSFYLQMTSLKPEDTAVYYCAAEYTYGSPYDYWGQGTQVTVSS | low polyreactivity
10 | QLQLVESGGGLVQAGGSIRLSCAASGSIFDWYAMGWYRQEPGKERELVARITSGGRTNYADSVKGRFTISRDNAKNTVYLQMNSLKPEDTAVYYCAAGRVSWSPYYYWGQGTQVTVSS | high polyreactivity
11 | QLQLVESGGGLVQAGGSLRFSCAASGYISRRYAMVWSIQAPGKERELVAAITGGGGSTYYADSVKGRFTISRDNAKNTVYLQMNSLKPEFTAVYYCNAYWGRSGYAGGYWGQGTQVTVSS | high polyreactivity
12 | QLQLVESGGGLVQAGGSLRISCAASRSTFENNAMGWYRQAPGKERELVASSTNYADSVKGRFTISRDNAKNTVYLQMNSLKPEDTAVYYCAREQGVNRNHDYWGQATQVTVSS | low polyreactivity
13 | QLQLVESGGGLVQAGGSLRLSCAASGFIFYLYAMGWYRQAPGKDRELVAAISWSGGITYYADSVKGRFTISRDNAKNTVYLQMNSLKPEDTAVNYCNAVGASASDGDSWGQGTQVTVSS | high polyreactivity
14 | QLQLVESGGGLVQAGGSLRLSCAASGRIFDYYAIGWYRQAPGKERQLVATINFSDGSTYYADSVKGRFTISRDNAKNTVYLQMNSLKPEDTAVYYCAAAGWEPYDSLDMNYWGQGTQVTVSS | low polyreactivity
15 | QLQLVESGGGLVQAGGSLRLSCAASGRIFGNYAMGWYRQAPGKERELVASINIGGGSTYYADSVKGRFTISRDNAKNTVYLQMNSLKQEATAVYYCAAPNTTDYWPAQPGFDYWGQGTQVTVSS | low polyreactivity
16 | QLQLVESGGGLVQAGGSLRLSCAASGRIFIYNAMGWYRQAPGKERELVAAINRSGVSTHYADSVKGRFTISRDNAKNTVYLQMNSLKPEDTAVYYCARTVYGARSFDYWGQGTQVTVSS | low polyreactivity
17 | QLQLVESGGGLVQAGGSLRLSCAASGRIFQDNPKGWYRPPPSKERELVAAISISGGITYYADSVKGRFTISRDNAKNTVYLQMNSLKPEDTAVYYCNKSISARLPGRYDYWGQGTQVTVSS | low polyreactivity
18 | QLQLVESGGGLVQAGGSLRLSCAASGRIFVLYTMGRNRQATGKERELVAAISNVGSTNYADSVKGRFTISRDNAKYTVYLQMNSLIPEDTAVYYCNDRRRYGWHLYYYWGQGTQVTVSS | high polyreactivity
19 | QLQLVESGGGLVQAGGSLRLSCAASGRIFVRYAMGWYRQAPGKERELVAAISGRGTSTYYADSVKGRFTISRDNAKNTVYLQMNSLKPEDTAVYDCNTFSQPKWGTSDYDYWGQGTQVTVSS | high polyreactivity
20 | QLQLVESGGGLVQAGGSLRLSCAASGRIYLYAMGWSRQAPGKERELVAAITTRAGRTYYADSVKGRFTISRDNAKNTVYFQMNSLKPEDTAVYYCAADGTRYPAYGYWGQGTQVTVSS | low polyreactivity
21 | QLQLVESGGGLVQAGGSLRLSCAASGRTFRSYTMGRYRQAPGKERELVASITRSGVSTYYADSVKGRFTISRDNAKNTVYLQMNSLKPEDTAVYYCAAYSVFRSYDYWGQGTQVTVSS | high polyreactivity
22 | QLQLVESGGGLVQAGGSLRLSCAASGSIFGDNAMGWYRQAPGKERELVAAISSSGGSTYADSVKGRFTISRDNAKNTVYLQMNSLKPEDTAVYYCATQIAWGTYVINPQMDYWGQGTQVTVSS | low polyreactivity

Row | Sequence | polyreactivity (PSR sort gate)
23 | QLQLVESGGGLVQAGGSLRLSCAASGSIFGPYARGWYRQAPGKERELVAAITDGGGSTYYADSVKGRFTISRDNAKNTVYLQMNSLKPEETAVDYCAADHSSKSGPADTFYWFDYWGQGTQVTVSS | low polyreactivity
24 | QLQLVESGGGLVQAGGSLRLSCAASGSILTINAMGWYSQAPGKERELVAAITGNGGSTDYADSVKVRFTISRDNAKNTVYLQMNSQKPEDTAVYYCAARVRGTGVYGGYNYWGQGTQVTVSS | high polyreactivity
25 | QLQLVESGGGLVQAGGSLRLSCAASGSTFDTYAMGWYRHAPGKERELVAGINTDGDNTYYADSVKGRFTISRDNAKNTVYVQMNSLKPEDTAVYYCAARFYRASGRTPSYRGHHYDYWGQATQVTVSS | low polyreactivity
26 | QLQLVESGGGLVQAGGSLRLSCAASGSTFRNNAMGWYRQAPGKERELVAAISRGGGSTYYADSVKWRFTISRDNAKNTVYLQMNSLKPDDTAVYYCARRPTGIYDYWGQGTQVTVSS | high polyreactivity
27 | QLQLVESGGGLVQAGGSLRLSCAASGSTFRWYAKGWYRQAPGKERELVAAISYSGGRTYYADSVKGRFTISRDTAKNTVYLQMNSLKPEDTAVYYCAADYVESKSLLEYWGQGTQVTVSS | low polyreactivity
28 | QLQLVESGGGLVQAGGSLRLSCAASGSTFRYYAMGWYRQAPGKERELVAAISRTGGSTYYADSVKVRFTISRDNAKNTVYLQMNSLKPEDTAVYYCNVRQFLNRYTSWDYRYHYDYWGQGSQVTVSS | high polyreactivity
29 | QLQLVESGGGLVQAGGSLRLSCAASGSTFSYNAMGWYRQAPWKERELVAAISGSGGTTYYADSVKVRVTISRDNAKNTVYLQMNSLKPEDTAVYYCAARPFRSWRYDYWGQGSQVTVSS | low polyreactivity
30 | QLQLVESGGGLVQAGGSLRLSCAASGSTQGVYAMGSYRQAPGKERELVAAISRSGGRTYYADSVKGRFTISRDNAKNTVYLQMNSLKPEDTAVYYCAADYYLWVYWYDYWGQGTQVTVSS | high polyreactivity
31 | QLQLVESGGGLVQAGGSLRLSCAASGTIFDTYAMGWSRQAPGKEMELVAAIRWTGGSTYYADSVKGRFTISRENAKNTVYFQMNSLKPEDTAVYYCAATWYYHYNDWKPWFEYGYWGQGTQVTVSS | low polyreactivity
32 | QLQLVESGGGLVQAGGSLRLSCAASRSTFKYYAMGWYRQAHGKERELVAAISRRGGSTYYADSVKGRFTISRDNAKNTVYLQMNSLKPEDTAVYYCAADIIRPVTVDYWGQGTQVTVSS | high polyreactivity
33 | QLQLVESGGGLVQAGGSLRLSCAATGFIFRYYVMGWYRQAPGKERELVAAITSGSTYADSVKGRFTISRDNAKNTVYLQMISLKPEDTAVYYCAAVKSQRGGPYSRGGKFGYWGQGTQVTVSS | high polyreactivity
34 | QLQLVESGGGLVQAGGSLRLSSAASGIIRVNAMGWNIQAPGKQRELVATITNVGSTNYADSVKGRFTISRDNAKNTVYLQMNSLKPEDTAVYYCAAEYDGPFYSFYPEQRYYWGQGTQVTVSS | low polyreactivity
35 | QLQLVESGGGLVQAGGSLRVSCAASGSIFLRYAMGWYRQAAGKERELVAAITSSGGSTYYADSVKGRFTISRDNAKNTVYLQMNSLKPEDTAVYYCNRYSYLFPYYWKYDYWGQGTQVTVSS | high polyreactivity
36 | QLQLVESGGGLVQSGGSLRLSCAASGRTFDWYTKGWYRQAPGKERELVAAITSGGTTNYADSVKGRFTISRDNAKNTVYLQMNSLKPEDTAVYYCAKDEGEGYDYWGQGTQVTVSS | low polyreactivity
37 | QLQLVESGGVLDQAGRSLRLICAASVIIFRGYAKGRSRQAHGKERELVAAISRSGGRTYYADSVKGRFTISRDNAKKTVYLQRNSLKTEDTAVYYCAPQWLYLEYDYWGQGTQVTVSS | high polyreactivity
38 | QLQLVESGRGLVQAGGSLRLSCAGSGFIVGYNAMGSYRQAPGKDRELVAAISSGGSTYYADSVKGRFTISRVNAKNTVYLQMNSLKPEDTAVYYCAVELGYPIQSYALWWDFEYWGQGTQVTVSS | low polyreactivity
39 | QLQLVESLRGLVQAGGSLRLSCAASVSIIGPNAMGLYRQATGKERELVAAITLSGGSTYYADSVKGRFTISRDNAKNTVYLQMNSLKPEDTAVYYCNADLLPADAPLWVTGGDYWGQGTQVTESS | low polyreactivity
40 | QLQLVESRGGLVQSGGSLRLSCAASGRIFWRYAMGWYRQAPGNERELVAAISGRSGSTYYADSVKGRFTISRDNAKNTVYLLMNSLKAEDTAVYYCAAKYGTLRYDYWGQGTQVTVSS | high polyreactivity
41 | QLQLVESVGGLVQAGGSLRLSCAPSGSTFYWNAMGWYRQAPGKERELVAVITSSGTRTYYADSVKGRFTISRDNAKNTVYLQMNSLKPEDTEVDYCAKRETYTGPNSRYGQWKKVYYWGQGTQVTVSS | low polyreactivity
42 | QLQPVESGGGLVQAGGSLRLSSAASGSTFVSYDRGWYRQAPGKERALVAVITSGGSTNYADSVKGRFTISRDNAKNTVYLQMNSLKPEETAVYYCAKRRYGRSGGSRYHYWGQGTQVTVSS | high polyreactivity
43 | QLQRVESGGGLVQAGGSLRLSCAASGSTFYPNAMGWYRQAPAKEREFVAAISTSAGRTYYADSVKGRFTISRDNAKNTVYLQMNSLKPEDTAVYYCNARYWVYYVYEYDSWGQGTQVTVSS | low polyreactivity
